From paper PMC4136481

Molecular target: T1, basic region-leucine zipper (B Zip) domain of the transcription factor CCAAT/enhancer binding protein α (C/EBPα) (rat), P05554
T1 chain: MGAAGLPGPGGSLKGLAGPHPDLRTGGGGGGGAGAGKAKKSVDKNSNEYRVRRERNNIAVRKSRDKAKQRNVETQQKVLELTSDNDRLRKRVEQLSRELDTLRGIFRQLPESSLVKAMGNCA
Test: FRET or BRET
Conditions: remark: other sources report otherwise

B1: basic region-leucine zipper (B Zip) domain of the transcription factor CCAAT/enhancer binding protein α (C/EBPα), P05554 237-358 (domain or fragment)
chain: MGAAGLPGPGGSLKGLAGPHPDLRTGGGGGGGAGAGKAKKSVDKNSNEYRVRRERNNIAVRKSRDKAKQRNVETQQKVLELTSDNDRLRKRVEQLSRELDTLRGIFRQLPESSLVKAMGNCA
Question: With B1 as the binder, how does the donor fluorescence lifetime τm in the presence of the acceptor, mean read?
Answer: The donor fluorescence lifetime τm in the presence of the acceptor, mean was 2.78 ns.
